Molecular target: mS105 (Chlamydomonas reinhardtii (endogenous in strain CC-4351))
Assay: cryo-EM structure

In the case of mS105 (natural protein), the stoichiometry N is reported as 3.
